Experimental data as given in the supplement of paper PMC10567573.
± gives the standard deviation.

Assay: protein stability index of a GFP-peptide fusion (GPS, HEK-293T) (PSI 1-6); higher = more stable
Details: c terminus: a fixed tail appended
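Also: 24-mer peptide tiles fused after GFP, lentivirally expressed, FACS-sorted into six equal bins by GFP/DsRed ratio, decoded by Illumina sequencing, PSI is the read-weighted mean bin number.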

Sequence | protein stability index (treatment: DMSO) | protein stability index (treatment: MLN4924 1 uM, 8 h)
NRLSIGLQSLDDTELRLLGRTHSA [RSAD1] | 3.77 ± 0.22 | 3.79 ± 0.28
GRVSKQASQPVKKQQENATSCSLE [WDR41] | 5.22 ± 0.1 | 5.29 ± 0.16
QLLKGRVDNISTLDSEIKKNSDGM [CD207] | 4.24 ± 0.16 | 4.23 ± 0.2
PGPGDDLCSDLEEAPEAELSQAPA [HES6] | 5.44 ± 0.23 | 5.43 ± 0.35
NRDLRKASVTIQARAEQEEEFISN [CCDC6] | 4.96 ± 0.26 | 5.05 ± 0.27
PHFQPDASLLQPVTPLGTSRWRKI [NCF4] | 3.58 ± 0.3 | 3.73 ± 0.17
LRALREKLFAHSSDLLSEFKKHDA [PPEF2] | 2.1 ± 0.33 | 2.29 ± 0.42
AEVVKILQTMLRQSAFLHLPLPEQ [INTS4] | 2.75 ± 0.51 | 2.89 ± 0.22
TRLFHDSAVTSVRILQDEQYLMAS [DCAF4] | 2.76 ± 0.18 | 2.88 ± 0.25
KEEAGAPGGGAGMAAGFPYALRAY [CEBPB] | 3.06 ± 0.13 | 3.31 ± 0.15
LMMRMGILGRGLQEYQLPYQRVLP [TCAP] | 2.48 ± 0.4 | 2.28 ± 0.25
ADPLDTPPDSKEGIVVESNHDSHM [PDZK1] | 5.53 ± 0.1 | 5.36 ± 0.33
AHIALETLEGHQRAIMAHMTVEEI [FLOT1] | 3.25 ± 0.29 | 3.51 ± 0.32
PGVAYPAFLGPDEAFALPDSLLVV [SPSB4] | 2.76 ± 0.49 | 2.21 ± 0.13
LEEGKHSSHEVKALGAMWKLHKSQ [TRIM9] | 3.83 ± 0.22 | 4.22 ± 0.19
WNVLMWTSLFLGNGVLLCFYSQEW [SOAT1] | 2.99 ± 0.93 | 2.7 ± 0.38
KAVSEMRQKIWNNMPKDHPVSCCL [DYNC2LI1] | 2.41 ± 0.21 | 2.46 ± 0.29
NFSIVPYEKKFDTFIPLEPLPQIP [SPATS1] | 3.04 ± 0.33 | 2.97 ± 0.34

Sequence | protein stability index (treatment: DMSO) | protein stability index (treatment: MLN4924 1 uM, 8 h)
FQQLMVETCSCGYYLHPLPAGAEY [SCNN1D] | 2.6 ± 0.69 | 2.8 ± 0.69
FGGTGIPFGESNGNGVHVCNVKYK [KLHDC10] | 2.52 ± 0.35 | 3.06 ± 0.51
LEAVAGALVVALWGPLQDSLEHTL [TSPAN10] | 3.12 ± 0.95 | 3.57 ± 0.42
PWGVQGGQESEVPYKREEEALEER [PKD2L1] | 5.16 ± 0.37 | 5.56 ± 0.19
CQHLSSSAEELRKARSNSTLSKSE [KCNA3] | 5.01 ± 0.33 | 4.75 ± 0.26
QQNIPSTLLQDHENQRLFEMLGRK [WAS] | 4.32 ± 0.17 | 4.25 ± 0.24
GGRRRPPASSRNRSPSGSLRSARG [RBMY1A1] | 5.16 ± 0.28 | 5.2 ± 0.18
RRYVARLEMRRRCTWSIFQSIEYA [PPEF2] | 1.86 ± 0.94 | 2.26 ± 0.14
APEYRGRTELLKDAIGEGKVTLRI [MOG] | 2.59 ± 0.2 | 2.72 ± 0.38
GDAGSRGPMGMRGPPGPQGPPGSP [EMID1] |  | 4.54 ± 1.7
RGLRGEPGPQGSAGQRGEPGPKGD [EMID1] | 5.19 ± 0.4 | 5.41 ± 0.6
KLERLKQQNEDLRRMAESLRIPEG [FUT8] | 3.87 ± 0.28 | 4 ± 0.3
EICLWGRHIFMGYLESETETTEAI [ACSBG2] | 2.55 ± 0.072 | 3.05 ± 0.29
GYTFDYAYDWVGRPIPTPVGSVHV [CSNK1G1] | 2.13 ± 0.44 | 2.14 ± 0.4
QDPEGKGEQEHSQQKEEEEEMAVV [CHGA] | 5.43 ± 0.34 | 5.69 ± 0.13
NRKSILSRHLNSQVKKTTTRWCHI [PHTF1] | 2.57 ± 0.55 | 2.57 ± 0.39
GSDTGASLKLASSELERLIVPNSN [JUNB] | 4.31 ± 0.057 | 4.15 ± 0.17
ERWLQKQGKYSGVGLLDHMVSIYL [RNF180] | 2.3 ± 0.39 | 2.59 ± 0.28
